Test results taken from patent US20220347267A1, “METHODS TO IMPROVE PATIENT RESPONSE TO IMMUNE CHECKPOINT INHIBITORS AND FUNCTIONAL TESTS TO PREDICT RESPONSE” (Biomarker Strategies, LLC, priority 2019, published 2022).

B1: IL1a: interleukin modulator, 1 ng/ml; Sigma Aldrich (protein, UniProt P01583 113-271, looked up)
Interleukin-1 alpha: SAPFSFLSNVKYNFMRIIKYEFILNDALNQSIIRANDQYLTAAALHNLDEAVKFDMGAYKSSKDDAKITVILRISKTQLYVTAQDEDQPVLLKEMPEIPKTITGSETNLLFFWETHGTKNYFTSVAHPNLFIATKQDYWVCLAGGPPSITDFQILENQA
B2: TNFb: enhancer molecule, 50 ng/ml; Sigma Aldrich (protein, UniProt P01374 35-205, looked up)
Lymphotoxin-alpha: LPGVGLTPSAAQTARQHPKMHLAHSTLKPAAHLIGDPSKQNSLLWRANTDRAFLQDGFSLSNNSLLVPTSGIYFVYSQVVFSGKAYSPKATSSPLYLAHEVQLFSSQYPFHVPLLSSQKMVYPGLQEPWLHSMYHGAAFQLTQGDQLSTHTDGIPHLVLSPSTVFFGAFAL
B3: IL12: interleukin modulator, 50 ng/ml; Sigma Aldrich (protein, UniProt P29459 23-219; P29460 23-328, looked up)
Interleukin-12 subunit alpha: RNLPVATPDPGMFPCLHHSQNLLRAVSNMLQKARQTLEFYPCTSEEIDHEDITKDKTSTVEACLPLELTKNESCLNSRETSFITNGSCLASRKTSFMMALCLSSIYEDLKMYQVEFKTMNAKLLMDPKRQIFLDQNMLAVIDELMQALNFNSETVPQKSSLEEPDFYKTKIKLCILLHAFRIRAVTIDRVMSYLNAS
Interleukin-12 subunit beta: IWELKKDVYVVELDWYPDAPGEMVVLTCDTPEEDGITWTLDQSSEVLGSGKTLTIQVKEFGDAGQYTCHKGGEVLSHSLLLLHKKEDGIWSTDILKDQKEPKNKTFLRCEAKNYSGRFTCWWLTTISTDLTFSVKSSRGSSDPQGVTCGAATLSAERVRGDNKEYEYSVECQEDSACPAAEESLPIEVMVDAVHKLKYENYTSSFFIRDIIKPDPPKNLQLKPLKNSRQVEVSWEYPDTWSTPHSYFSLTFCVQVQGKSKREKKDRVFTDKTSATVICRKNASISVRAQDRYYSSSWSEWASVPCS

Assays:
Assay type in all cases: cell-based, human
CAL27 cells = experiment: PD-L1 western blot after modulators (EM and MTAs); details: Head and neck CAL27, 30 minutes, 3 hours, 24 hours
Description: (§1) Cell lines were acquired from ATCC, Sigma, or DSMZ. Human non-small cell lung carcinoma (NSCLC) cell lines H292 (ATCC no. CRL-1848.), H1299 (ATCC no. CRL-5803), H520 (ATCC no. CRL-5811), CALU6 (ATCC no. HTB-56), H1975 (ATCC no. CRL-5908), H460 (ATCC no. HTB-177), H2126 (ATCC no. CCL-256), H1650 (ATCC no. CRL-5883), and H2087 (ATCC no. CRL-5922) were used for this experiment along with head and neck squamous cell carcinoma (HNSCC) cell lines BHY (DSMZ ACC 404), CAL27 (ATCC no. CRL-2095), KYSE410 (Sigma), and A253 (ATCC no. HTB-41), melanoma cell lines A375 (ATCC no. CRL-1619), COL0853 (Sigma), and MM127 (Sigma) pancreatic cancer cell lines BXPC3 (ATCC no. CRL-1687), colorectal cancer cell lines […], HCT116 (ATCC no. CCL-247EMT), and breast cancer cell lines BT549 (ATCC no. HTB-122), BT20 (ATCC no. HTB-19), and T47D (ATCC no. HTB-133). Cells were maintained in manufacturer-recommended conditions at 37° C. inside humidified 5% CO2 incubators. Sub-cultivation and harvesting for all cell lines were performed using Accutase (GIBCO Life Technologies; cat. no. A1110501) at 37° C. for 10 minutes. Cell viability was measured using trypan blue exclusion staining in conjunction with the Countess II Automated Cell Counter (Thermo Fischer Scientific; cat. no. AMQAX1000). Measurements were made in duplicate and the average number of viable cells was recorded prior to experiments.
(§2) Enhancer Molecule and Therapies: IFNγ, (10 ng/ml; Sigma Aldrich, cat.no 11040596001), TNFα (10 ng/ml; BD Biosciences cat. no. 554618), Osimertinib (100 ng/ml; Selleckchem cat.no. S7297), Everolimus (100 ng/ml; Selleckchem cat.no S1120), GSK458 (10 ng/ml; Selleckchem cat. no. S2658), TNFb (50 ng/ml; Sigma Aldrich cat. no.), GSK795 (1,000 ng/ml; Selleckchem cat. no. S7492), IL-12 (50 ng/ml; Sigma Aldrich SRP3073), GM-CSF (50 ng/ml; Sigma Aldrich cat. no. G5035), IL-1a (1 ng/ml; Sigma Aldrich cat. no. 12778-), IL-6 (50 ng/ml; Sigma Aldrich), IL-17 (100 ng/ml; Sigma Aldrich cat. no. SRP3080), TGFb (1 ng/ml; Sigma Aldrich cat. no. T7039), and IL-10 (50 ng/ml; Sigma Aldrich cat. no. SRP3071) were administered to cell lines for various times including 30 minutes, 3 hour, and 24 hour time intervals prior to cell lysis and protein extraction.
(§3) To determine the effects of the aforementioned molecules on the modulation of PD-L1, we selected various NSCLC, HNSCC, breast cancer, melanoma, colorectal cancer, and pancreatic cancer cell lines as examples. Other diseases or cell lines could be used readily as could more complex samples such as cells isolated from xenografts and clinical samples. Cells were plated, for three different time points (30 minutes, 3 hours, and 24 hours), inside 6-well petri dishes with 2 mL of appropriate medium. Plates were incubated for 24 hours in 5% CO2 incubators at 37° C. After 24 hours, each 6-well plate was washed with PBS (Gibco Life Technologies, cat. no. 10010023) followed by fresh media being added along with each cell line's vehicle control or appropriate modulator for each specific time point, and were placed in CO2 incubators until their modulation time point was reached. Other conditions can be readily used, such as processing on automated systems such as SnapPath. At the end of each time point, while keeping plates on ice, cell lysis was conducted by aspirating culture medium from each plate, washing of each plate three times with 5 ml of cold PBS (Gibco Life Technologies, cat. no. 10010023) and culminated with the addition of cold 1× lysis buffer containing (Cell Signaling, cat. no. 9803 S) protease inhibitor cocktail (Cell Signaling, cat. no. 5871S), phosphatase inhibitor cocktail (Cell Signaling, cat. no. 5870S), and PMSF (Fisher Scientific, cat. no. ICN19538101). Plates were then placed on ice for ten minutes, swirling each plate intermittently. Aliquots of protein lysates were prepared and then stored at −80° C. until protein quantification and Western blot analysis was to be conducted. […]

BHY cells = experiment: PD-L1 western blot after modulators (EM and MTAs); details: Head and neck BHY, 30 minutes, 3 hours, 24 hours
Description: as §1, §2, §3

H1975 cells = experiment: PD-L1 western blot after modulators (EM and MTAs); details: NSCLC H1975, 30 minutes, 3 hours, 24 hours
Description: as §1, §2, §3

BT549 cells = experiment: PD-L1 western blot after modulators (EM and MTAs); details: Breast BT549, 30 minutes, 3 hours, 24 hours
Description: as §1
(§4) T7039), and IL-10 (50 ng/ml; Sigma Aldrich cat. no. SRP3071) were administered to cell lines for various times including 30 minutes, 3 hour, and 24 hour time intervals prior to cell lysis and protein extraction.
(§5) To determine the effects of the aforementioned molecules on the modulation of PD-L1, we selected various NSCLC, HNSCC, breast cancer, melanoma, colorectal cancer, and pancreatic cancer cell lines as examples. Other diseases or cell lines could be used readily as could more complex samples such as cells isolated from xenografts and clinical samples. Cells were plated, for three different time points (30 minutes, 3 hours, and 24 hours), inside 6-well petri dishes with 2 mL of appropriate medium. Plates were incubated for 24 hours in 5% CO2 incubators at 37° C. After 24 hours, each 6-well plate was washed with PBS (Gibco Life Technologies, cat. no. 10010023) followed by fresh media being added along with each cell line's vehicle control or appropriate modulator for each specific time point, and were placed in CO2 incubators until their modulation time point was reached. Other conditions can be readily used, such as processing on automated systems such as SnapPath. At the end of each time point, while keeping plates on ice, cell lysis was conducted by aspirating culture medium from each plate, washing of each plate three times with 5 ml of cold PBS (Gibco Life Technologies, cat. no. 10010023) and culminated with the addition of cold 1× lysis buffer containing (Cell Signaling, cat. no. 9803 S) protease inhibitor cocktail (Cell Signaling, cat. no. 5871S), phosphatase inhibitor cocktail (Cell Signaling, cat. no. 5870S), and PMSF (Fisher Scientific, cat. no. ICN19538101). Plates were then placed on ice for ten minutes, swirling each plate intermittently. Aliquots of protein lysates were prepared and then stored at −80° C. until protein quantification and Western blot analysis was to be conducted. The protein concentration of each lysate was analyzed by using the Pierce 660 Protein Assay Reagent (Thermo Fisher Scientific, cat. no. 22660) and testing of each sample was conducted in duplicate. Two μg of protein was then loaded per lane into 10% Midi-PROTEAN TGX Precast Gels (Bio Rad, cat. no. 5671034) along with Kaleidoscope Prestained Protein Standard (BioRad, cat. no. 1610375) which ran at 220V for 45 minutes. Proteins were transferred to mini-PVDF membranes (BioRad, cat. no. 1704156) in 3 minutes using the Trans-Blot Turbo Transfer System (BioRad, cat. no. 1704150EDU).

[1] = system: various NSCLC, HNSCC, breast cancer, melanoma, colorectal cancer, and pancreatic cancer cell lines; experiment: PD-L1 western blot after modulators, summary over all samples; details: depending on the sample, summary of Table 3
Description: as §1, §4, §5

KYSE410 cells = experiment: PD-L1 western blot after modulators (EM and MTAs); details: Head and neck KYSE410, 30 minutes, 3 hours, 24 hours
Description: as §1, §2, §3

H292 cells = experiment: PD-L1 western blot after modulators (EM and MTAs); details: NSCLC H292, 30 minutes, 3 hours, 24 hours
Description: as §1, §4, §5

BT20 cells = experiment: PD-L1 western blot after modulators (EM and MTAs); details: Breast BT20, 30 minutes, 3 hours, 24 hours
Description: as §1, §2, §3

H2126 cells = experiment: PD-L1 western blot after modulators (EM and MTAs); details: NSCLC H2126, 30 minutes, 3 hours, 24 hours
Description: as §1, §2, §3

H1650 cells = experiment: PD-L1 western blot after modulators (EM and MTAs); details: NSCLC H1650, 30 minutes, 3 hours, 24 hours
Description: as §1, §4, §5

H2087 cells = experiment: PD-L1 western blot after modulators (EM and MTAs); details: NSCLC H2087, 30 minutes, 3 hours, 24 hours
Description: as §1, §2, §3

Molecule | PD-L1 Response (CAL27 cells) | PD-L1 Response (BHY cells) | PD-L1 Response (H1975 cells) | PD-L1 Response (BT549 cells) | regulation of PD-L1 across samples [1] | PD-L1 Response (KYSE410 cells) | PD-L1 Response (H292 cells) | PD-L1 Response (BT20 cells) | PD-L1 Response (H2126 cells) | PD-L1 Response (H1650 cells) | PD-L1 Response (H2087 cells)
Cn1ncc(Cl)c1-c1cc(C(=O)N[C@H](CN)Cc2ccc(F)c(F)c2)oc1Cl [GSK795, reference compound] | Up | Up | Down | Up | – | – | – | – | – | – | –
C=CC(=O)Nc1cc(Nc2nccc(-c3cn(C)c4ccccc34)n2)c(OC)cc1N(C)CCN(C)C [Osimertinib, reference compound] | – | Up | – | – | both up and down regulation | Up | Down | – | – | – | –
B1 | – | – | Up | Up | only led to upregulation | Up | Up | Up | Up | Up | –
B2 | – | – | Up | – | both up and down regulation | – | – | Up | – | Up | Down
B3 | – | – | Down | – | – | – | – | – | – | – | –
